Measurements taken from patent US20230203156A1, “ANTI-MDR1 ANTIBODIES AND USES THEREOF” (KENJOCKETY BIOTECHNOLOGY, INC., priority 2020, published 2023).
“Also recorded” adds a separate entry of the source.

Columns and labels:
[1] = test system: A2780 ADR ovarian carcinoma; experiment: A2780 ADR drug-resistant ovarian carcinoma model in nude mice; assay type: in vivo; conditions: for tumor volume, single agent: antibody as a single agent; for tumor volume, in combination with paclitaxel: antibody plus paclitaxel
Procedure: (§1) Anti-ABCB1 antibodies B1.129, B1.261, B1.223, B1.225, B1.188, B1.28, and B1.226 were tested for effect on growth of tumors in immunodeficient mice. The following cancer cell lines were used for generating tumor models.
A2780 ADR: The adriamycin-resistant cell line A2780ADR has been developed by exposure of the parent A2780 cell line (Sigma catalogue no. 93112519) to adriamycin. A2780ADR is cross-resistant to melphalan and vinblastine. To retain resistance adriamycin has to be added to the media. The cells grow as a monolayer and in suspension in spinner cultures and are tumorigenic in immune deficient mice. Together with the cisplatin-resistant variant A2780cis these lines only differ in their exposure to a single drug and should facilitate the search for molecular changes responsible for the expression of pleiotropic drug resistance in human ovarian cancer.
Nude mice were implanted with A2780 ADR cells to model ovarian carcinoma. Anti-B1 monoclonal antibodies are efficacious in A2780 ADR ovarian carcinoma model in nude mice.

[2] = test system: MES-SA DX5 uterine sarcoma; experiment: MES-SA DX5 drug-resistant uterine sarcoma model in nude mice; assay type: in vivo; conditions: for tumor volume / tumor growth, single agent / tumor volume / tumor growth, in combination with paclitaxel: MES-SA DX5, nude mice; for tumor volume / tumor growth, single agent: antibody as a single agent; for tumor volume / tumor growth, in combination with paclitaxel: antibody plus paclitaxel; for sensitization of MES-SA DX5 uterine sarcoma to paclitaxel: MES-SA DX5 tumors in vivo
Procedure: as §1
MES-SA DX5: The multi drug-resistant cell line MES-SA/Dx5 (Sigma. 95051031) was derived from the human uterine sarcoma cell line MES-SA (Sigma Catalogue number. 95051030) which was originally obtained from a tumour from a person at the time of hysterectomy. […] Cross resistance to bleomycin, cisplatin, carmustine, 5-fluorouracil or methotrexate was not observed.
Nude mice were implanted with MES-SA DX5 cells to model uterine sarcoma. Anti-B1 monoclonal antibodies are efficacious in MES-SA DX5 uterine sarcoma model in nude mice.

[3] = test system: MES-SA DX5 uterine sarcoma; experiment: MES-SA DX5 uterine sarcoma model in NSG mice; assay type: in vivo
From the text: NSG mice were implanted with MES-SA DX5 cells to model uterine sarcoma. Anti-B1 monoclonal antibodies are efficacious in MES-SA DX5 uterine sarcoma model in NSG mice.

[4] = molecular target: T1, human MDR1 extracellular loops 1 and 4 (ECD1, ECD4) (Homo sapiens, UniProt P08183); experiment: Epitope mapping with mutant human MDR1 expressed on 293T cells (flow cytometry); assay type: binding; conditions: extracellular loop 1 and extracellular loop 4
T1 construct: FLAG (C); expressed in transfected cells; host or cells: 293T
From the text: (§2) To determine binding of anti-MDR1 mAbs listed in Table 2 to the two major extracellular loops 1 and 4 of MDR1, various mutations were constructed to alter or substitute these two loops. To examine binding to cynomolgus extracellular loops, the extracellular loop 1 and/or loop 4 of cynomolgus MDR1 were grafted (with a C-terminal FLAG tag) to substitute for the human loops in the human MDR1 using standard techniques. To examine binding dependence on the normal human loops, MDR1 variants with deletion 79-102 and deletion 82-99 in loop 1 were also generated. Loop 1 is also referred to as ECD1. Loop 4 is also referred to as ECD4. These mutant MDR1 efflux pump variants were expressed on 293T cells using standard methods to generate cells that could be used to distinguish binding of various anti-MDR1 mAbs. The different cells were incubated with different anti-MDR1 mAbs for about 1 hour at 4° C. The cells were washed twice with FACS buffer (PBS containing 0.5% BSA). Alexa647 labeled goat anti-human antibody was added as a secondary antibody, and the samples were incubated on ice for another 1 hour. Samples were washed again and analyzed by flow cytometry.
(§3) FIG. 9 summarizes the findings from preliminary epitope mapping using mutant human MDR1. […] For example, anti-MDR1 mAb B1.129 requires ECD1 and ECD4 for binding to human MDR1. All of the anti-MDR1 antibodies contact ECD4. […] ECD1 refers to the first extracellular domain of human ABCB1, ECD4 refers to the fourth extracellular domain of human ABCB1 and “others” refers to the remainder of the extracellular domains 2-3 and 5-6 of human ABCB1. Only binding to ECD1 and ECD4 was tested.

human MDR1 [5] = molecular target: T2, human MDR1 (Homo sapiens, UniProt P08183); experiment: Antibody binding/titration to 293T cells overexpressing human MDR1 (FACS); conditions: 293T cell line overexpressing human MDR1
T2 construct: expressed in transfected cells
Procedure: Antibody binding to cells was evaluated by flow cytometry. 293T cells stably transfected to express human ABCB1 (293T_KPB1_OX) were washed once in flow cytometry buffer (PBS + 2% FBS + 0.02% sodium azide), resuspended at 2 x 10 \^6 cells/mL in flow cytometry buffer, and dispensed into 96-well microtiter plates at 0.1 mL/well. In the figures, “B1” refers to ABCB1 (also known as MDR1 or Pgp). Recombinant antibodies were added to cells at 5 ug/mL for initial binding confirmation, or serially diluted from 100 ug/mL in flow cytometry buffer. After incubating cells on ice for 30 min, cells were washed twice with flow cytometry buffer. Bound antibody was detected with PE-labeled F(ab′)2 fragment goat anti-human IgG (Jackson ImmunoResearch) and evaluated on an Attune NxT flow cytometer.
Binding titration of recombinant antibodies to ABCB1 transfectants was performed by 3-fold serial dilution of antibodies from 666.7 nM. Diluted antibody in flow cytometry buffer was incubated with cells on ice for 30 min. After 2 washes with flow cytometry buffer, bound antibody was detected with PE-labeled F(ab′)2 fragment goat anti-human IgG (Jackson ImmunoResearch) diluted 1:200 in flow cytometry buffer and incubated with cells for 20 min on ice. After 2 washes with flow cytometry buffer fluorescence was measured on an Attune NxT flow cytometer. Data were analyzed with GraphPad Prism 8.0 software to determine EC50′s.
(§4) Anti-MDR1 mAb B1.129 and a humanized version thereof were assessed for binding to 293T cell line overexpressing human MDR1 or to 293T cells transfected with cynomolgus MDR1. […] B1.129.hz1 and B1.129.hz2 antibodies are the same as the humanized versions B1.129.huH1-huL1(KV3) and B1.129.huH1-huL1(KV1), respectively, listed in Table 2. FIG. 10C summarizes the binding data for the B1.129 antibody.

cynomolgus MDR1 = experiment: Antibody binding to 293T cells transfected with cynomolgus MDR1
Chain of cynomolgus MDR1 (as listed by the source): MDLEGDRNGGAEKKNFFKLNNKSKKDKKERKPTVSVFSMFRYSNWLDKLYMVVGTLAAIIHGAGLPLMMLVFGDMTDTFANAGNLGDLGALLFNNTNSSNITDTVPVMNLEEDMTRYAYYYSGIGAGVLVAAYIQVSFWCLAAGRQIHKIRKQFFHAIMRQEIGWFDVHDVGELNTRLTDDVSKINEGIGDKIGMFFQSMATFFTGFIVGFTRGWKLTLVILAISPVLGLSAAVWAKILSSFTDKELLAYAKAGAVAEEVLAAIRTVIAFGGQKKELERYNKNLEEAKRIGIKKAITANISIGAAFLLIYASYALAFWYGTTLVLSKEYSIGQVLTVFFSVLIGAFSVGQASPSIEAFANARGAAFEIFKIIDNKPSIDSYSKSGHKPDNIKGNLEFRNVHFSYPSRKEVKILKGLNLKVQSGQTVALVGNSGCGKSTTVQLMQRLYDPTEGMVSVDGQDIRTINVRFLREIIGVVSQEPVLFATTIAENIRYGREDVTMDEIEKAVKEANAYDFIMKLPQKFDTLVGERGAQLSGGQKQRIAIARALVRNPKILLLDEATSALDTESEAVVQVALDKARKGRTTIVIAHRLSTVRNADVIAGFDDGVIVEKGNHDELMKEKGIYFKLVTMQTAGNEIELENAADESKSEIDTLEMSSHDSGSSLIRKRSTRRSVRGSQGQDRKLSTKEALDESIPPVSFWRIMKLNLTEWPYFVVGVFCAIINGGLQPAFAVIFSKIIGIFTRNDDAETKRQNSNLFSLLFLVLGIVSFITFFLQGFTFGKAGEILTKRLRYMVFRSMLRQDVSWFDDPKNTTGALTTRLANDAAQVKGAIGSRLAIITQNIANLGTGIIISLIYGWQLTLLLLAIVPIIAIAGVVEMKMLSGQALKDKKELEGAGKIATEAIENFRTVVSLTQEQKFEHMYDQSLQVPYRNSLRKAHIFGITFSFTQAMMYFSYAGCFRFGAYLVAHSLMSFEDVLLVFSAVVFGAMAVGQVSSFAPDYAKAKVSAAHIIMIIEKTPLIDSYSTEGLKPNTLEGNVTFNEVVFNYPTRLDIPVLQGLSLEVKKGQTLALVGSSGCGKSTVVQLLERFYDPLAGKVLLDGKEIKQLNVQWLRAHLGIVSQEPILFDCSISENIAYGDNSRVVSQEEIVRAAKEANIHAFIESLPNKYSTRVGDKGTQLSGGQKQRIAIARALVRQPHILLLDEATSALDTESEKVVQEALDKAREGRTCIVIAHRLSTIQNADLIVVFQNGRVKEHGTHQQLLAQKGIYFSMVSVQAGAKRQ
Procedure: as §4
Anti-MDR1 mAb B1.28 and a humanized version thereof were assessed for binding to 293T cell line overexpressing human MDR1 or to 293T cells transfected with cynomolgus MDR1.

[6] = test system: human MDR1 extracellular loops 1 and 4 (ECD1, ECD4); experiment: Epitope mapping with mutant human MDR1 expressed on 293T cells (flow cytometry); assay type: binding; conditions: mutant versus WT human ABCB1; preliminary epitope mapping
From the text: as §2, §3

human MDR1 [7] = molecular target: T2, human MDR1; experiment: Efflux blockade of MDR1 fluorescent substrates (flow cytometry); assay type: cell-based
Procedure: HEK 293T cells expressing human MDR1 or MES-SA/DX5 cells expressing human MDR1 were washed several times and aliquoted into 96-well plates as 50 µl aliquots/well at a cell density of 1 x 10e6 cells per ml in phenol red-free DMEM. Cells were mixed with 300 nM to 1 nM antibodies and incubated for 1 h at 37° C. To determine efflux blockade cells were incubated in the presence of B1 fluorescent substrates as follows: 0.6 µM Rhodamine; 5 µM […] (DiOC2(3)) or 0.6 µM Calcein AM for 1.5 h at 37° C. The cells were then washed twice and finally resuspended in […] PBS. Rhodamine, DiOC2(3) or Calcein AM fluorescence were measured by flow cytometry.
Effect of anti-MDR1 antibodies on efflux of MDR1 substrates Calcein, DIOC2, and Rhodamine was assessed as described in efflux blockade experimental procedure.

B1: B1.223: anti-MDR1 antibody, Mouse; VH SEQ ID NO:102, VL SEQ ID NO:104 (antibody, listed as Mus musculus, V domains shown)
VH: EVKLVESGGALVKPGGSLKLSCAASGFTFSNYAMSWVRQTPEKRLEWVATISSGGSYTYYPDSVKGRFTISRDNAKTTLYLQMSGLRSEDTALYYCAKFSNYGRFASWGQGTLVTVSS
VL: DIQMIQSPLSLPVSLGDQASISCRSSQSIVHSSGNTYLEWYLQKPGQSPRLLIYKVSNRFFGVPDRISGSGSGTDFTLRISRVEAEDLGVYYCFQGSHVPYTFGGGTKLELK
[1]
  tumor volume, single agent: decreased tumor volume
  tumor volume, in combination with paclitaxel: decreased tumor volume
[2]
  tumor volume / tumor growth, single agent: decreased tumor volume
  tumor volume / tumor growth, in combination with paclitaxel: decreased tumor volume
  sensitization of MES-SA DX5 uterine sarcoma to paclitaxel: sensitized
[3]
  sensitization of MES-SA DX5 uterine sarcoma to paclitaxel: sensitizes
[4]
  epitope on human MDR1: bind to an epitope comprising extracellular loop 1 and extracellular loop 4

B2: B1.129: anti-MDR1 antibody, Mouse; VH SEQ ID NO:56, VL SEQ ID NO:60 (antibody, listed as Mus musculus, V domains shown)
VH: EVQLQQSGPELVKPGASVKMSCKASGYTFSTYVIHWVKQKPGQGLEWIGYIYPYNDYTKYNEKFKDKATLTSDKSSSTAYMEIRSLTSEDSAVYYCSRAYYGNLVGYGVDYWGQGTSVTVSS
VL: QIVLTQSPAILPASPGEKVTMTCRASSSVSFIYWYQQRPGSSPKPWIFATSNLASGVPARFSGSGSGTSYSLTISRVEAEDAATYYCHQWGSNLPTFGGGTKLEIK
Human MDR1 [5]
  binding to human MDR1 (hB1): binds
Cynomolgus MDR1
  binding to cynomolgus MDR1 (cB1): binds
[1]
  tumor volume, single agent: decreased tumor volume
  tumor volume, in combination with paclitaxel: decreased tumor volume
[2]
  tumor volume / tumor growth, single agent: decreased tumor volume; also recorded: more effective in inhibiting tumor growth than 15D3 antibody
  tumor volume / tumor growth, in combination with paclitaxel: decreased tumor volume; also recorded: more effective in inhibiting tumor growth than 15D3 antibody
[4]
  epitope on human MDR1: bind to an epitope comprising extracellular loop 1 and extracellular loop 4
[6]
  ECD1 required for antibody binding to human ABCB1: requires
  ECD4 required for antibody binding to human ABCB1: requires
Human MDR1 [7]; 293T.hB1 cell line
  inhibition of efflux of DIOC2: inhibited efflux
  inhibition of efflux of Rhodamine: inhibited efflux
Human MDR1 [7]; MES-SA/Dx5 cells
  inhibition of efflux of DIOC2: inhibited efflux
  inhibition of efflux of Rhodamine: inhibited efflux
Human MDR1 [7]; cell line not given
  inhibition of efflux of Calcein: inhibited efflux of Calcein to a greater extent than the anti-MDR1 antibody 15D3

B3: B1.261: anti-MDR1 antibody, Mouse; VH SEQ ID NO:118, VL SEQ ID NO:122 (antibody, listed as Mus musculus, V domains shown)
VH: QVQLKESGPGLVAPSQSLSITCTVSGFSLTSYGVHWVRQPPGKGLEWLVVIWSDGSTTYNSALKSRLSISKDNSKSQVFLKMNSLQIDDTAMYYCARHGRWLLQRGGAMDYWGQGTSVTVSS
VL: DVVMTQAPKFMSTSVGDRVSVTCRASQNVGSYIAWYQQKLGQSPKALIYSASYRCSGVPDRFTGSGAGTDFTLTIRNVQSEDLAEYFCQQYNSYPLTFGGGTKLEIK
Human MDR1 [5]
  binding to human MDR1 (hB1): bind to hB1 and cB1
Cynomolgus MDR1
  binding to cynomolgus MDR1 (cB1): bind to hB1 and cB1
[1]
  tumor volume, single agent: decreased tumor volume
  tumor volume, in combination with paclitaxel: decreased tumor volume
[2]
  tumor volume / tumor growth, single agent: decreased tumor volume
  tumor volume / tumor growth, in combination with paclitaxel: decreased tumor volume
  sensitization of MES-SA DX5 uterine sarcoma to paclitaxel: sensitized

B4: B1.28: anti-MDR1 antibody, Mouse; VH SEQ ID NO:14, VL SEQ ID NO:18 (antibody, listed as Mus musculus, V domains shown)
VH: EVKLVESGGGLVKPGGSLKLSCAASGFTFGLYTMSWVRQTPERRLEWVATISSGGSNTYYPDSVKGRFTISRDNAKNNLFLQMNSLRSEDTALYYCARYYRYDAWFAYWGQGTLVTVSS
VL: DVLLTQTPLSLPVSLGDQASISCRSSQNIVHSTGNTYLDWYLQKPGQSPKLLIYKVSNRFSGVPDRFSGSGSGTDFTLKISRVEAEDLGVYFCFQGSHIPRTFGGGTKLEIK
Human MDR1 [5]
  binding to human MDR1 (hB1): binds to both hB1 and cB1
Cynomolgus MDR1
  binding to cynomolgus MDR1 (cB1): binds to both hB1 and cB1
[1]
  tumor volume, single agent: decreased tumor volume
  tumor volume, in combination with paclitaxel: decreased tumor volume
